# Assay: in vivo
# Parameters: species or system mice
# Details: male, NOD/SCID, mouse, iv, total radioactivity
# Protocol: The capability of [^68Ga]Ga-9 to delineate PSMA-expressing tumors in vivo was evaluated by small-animal PET imaging at 1 and 2 h p.i. For this, mice bearing LNCaP xenografts (n = 3) were injected with 1–3 MBq (250–500 pmol) [^68Ga]Ga-9 into a tail vein and subjected to micro-PET/CT imaging at 1 h post-injection (p.i.). PSMA specificity was confirmed by co-injection of 2-PMPA (1 µmol mouse^−1). […] LNCaP tumors were clearly visualized by [^68Ga]Ga-9 and only the kidneys and the bladder as the major excretory organs were visible. […] The kidney uptake was 67.86 ± 8.35% IA g^−1 (n = 3) in the normal group vs. 19.9 ± 4.43% IA g^−1 in the blocking group (n = 3). […] The blood uptake was relatively high at 1 h p.i. with 3.62 ± 0.42% IA g^−1. Uptake in the muscles was low with 0.32 ± 0.12% IA g^−1. […]
# For PET imaging studies, mice were injected with 100 µL sterile saline formulations of 250–500 pmol [^68Ga]Ga-9 (1–3 MBq) by intravenous tail-vein injection and anesthetized with isoflurane (2–4% in air). […] Image counts per second per voxel (cps voxel^−1) were calibrated to activity concentrations (Bq mL^−1) by measuring a 3.5 cm cylinder phantom filled with a known concentration of radioactivity. […]
# Competitive inhibition (blocking) studies were also performed in vivo and measured using static PET imaging to investigate the specificity of the radiotracers for PSMA. […]
smiles,measurement,setting,value
"O=C(O)CC[C@H](NC(=O)N[C@@H](CCCCNC(=O)[C@H](Cc1ccc2ccccc2c1)NC(=O)[C@H]1CC[C@H](CNC(=O)CCCCn2ccnc2CN2CCN(Cc3nccn3CCCCC(=O)NC[C@H]3CC[C@H](C(=O)N[C@@H](Cc4ccc5ccccc5c4)C(=O)NCCCC[C@H](NC(=O)N[C@@H](CCC(=O)O)C(=O)O)C(=O)O)CC3)CCN(Cc3nccn3CCCCC(=O)NC[C@H]3CC[C@H](C(=O)N[C@@H](Cc4ccc5ccccc5c4)C(=O)NCCCC[C@H](NC(=O)N[C@@H](CCC(=O)O)C(=O)O)C(=O)O)CC3)CC2)CC1)C(=O)O)C(=O)O [^nat/68Ga-9, metal not drawn]",tissue to tissue ratio at 1 h,Tumor-to-kidney ratio,0.24
same,tissue to tissue ratio at 1 h,Tumor-to-liver ratio,5.17

# From paper PMC11635053, “Development of a homotrimeric PSMA radioligand based on the NOTI chelating platform” (EJNMMI Radiopharmacy and Chemistry, 2024)
